Numbering of substitutions follows the chain as printed. Bridges are numbered along the chain shown (N, C = ends).
T1: extracellular domain of activin receptor type IIB (ActRIIBecd), biotinylated (Homo sapiens (Human), UniProt Q13705 27-117, amino-biotinylated with amine-PEG3-Biotin)
T1 construct: immobilised on a streptavidin-coated sensor chip; also called biotinylated ActRIIBecd; extracellular domain of ActRIIB
T1 sequence: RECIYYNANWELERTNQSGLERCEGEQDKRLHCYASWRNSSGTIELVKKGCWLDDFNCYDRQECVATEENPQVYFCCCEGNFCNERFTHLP

B1: SEQ ID NO: 206, cysteine pairs C67-C71^a, C8-C43^b, C9-C41^b (designed binder)
chain: NSKIPKACCVPTELSAISMLYLDENEKVVLKNYQDMVVEGCGCRVDFSDVGWNDWIVAPPGYHAFYCHGECPFPLADHLNSTNHAIVQTLVNSV
modifications: disulfides C67-C71 (intra), C8-C43 (inter), C9-C41 (inter)
notes: homodimer by intermolecular disulfide
B2: SEQ ID NO: 260, cysteine pairs C15-C15^b, C80-C114^a, C79-C112^a, C44-C48^a (designed binder)
chain: AQAKHKQRKRLKSSCKRHPLYVDFSDVGWNDWIVAPPGYHAFYCHGECPFPLADHLNSTNHAIVQTLVNSVNSKIPKACCVPTELSAISMLYLDENEKVVLKNYQDMVVEGCGCR
modifications: disulfides C15-C15 (inter), C80-C114 (intra), C79-C112 (intra), C44-C48 (intra)
notes: as for B1
B3: SEQ ID NO: 260, cysteine pairs C15-C15^b, C80-C114^b, C79-C112^b, C44-C48^a (designed binder)
chain: B2 chain
modifications: disulfides C15-C15 (inter), C80-C114 (inter), C79-C112 (inter), C44-C48 (intra)
notes: as for B1
B4: SEQ ID NO: 260, cysteine pairs C44-C48^a (designed binder)
chain: B2 chain
modifications: disulfides C44-C48 (intra)
B5: SEQ ID NO: 260, cysteine pairs C15-C15^b, C79-C114^b, C80-C112^b, C44-C48^a (designed binder)
chain: B2 chain
modifications: disulfides C15-C15 (inter), C79-C114 (inter), C80-C112 (inter), C44-C48 (intra)
notes: as for B1
B6: SEQ ID NO: 260, cysteine pairs C79-C114^b, C80-C112^b, C44-C48^a (designed binder)
chain: B2 chain
modifications: disulfides C79-C114 (inter), C80-C112 (inter), C44-C48 (intra)
notes: as for B1
B7: SEQ ID NO: 260, cysteine pairs C79-C114^a, C80-C112^a, C44-C48^a (designed binder)
chain: B2 chain
modifications: disulfides C79-C114 (intra), C80-C112 (intra), C44-C48 (intra)
B8: SEQ ID NO: 324, cysteine pairs C44-C48^a (designed binder)
chain: B2 chain with S25K, W32H, I33A, T59D, L67K
modifications: disulfides C44-C48 (intra)
B9: SEQ ID NO: 324, cysteine pairs C80-C114^a, C79-C112^a, C44-C48^a (designed binder)
chain: B2 chain with S25K, W32H, I33A, T59D, L67K
modifications: disulfides C80-C114 (intra), C79-C112 (intra), C44-C48 (intra)
B10: SEQ ID NO: 194, cysteine pairs C23-C27^a (designed binder)
chain: VDFSDVGWNDWIVAPPGYHAFYCHGECPFPLADHLNSTNHAIVQTLVNSVAQAKHKQRKRLKSSCKRHPLY
modifications: disulfides C23-C27 (intra)
B11: SEQ ID NO: 268, cysteine pairs C23-C27^a (designed binder)
chain: VDFSDVGWNDWIVAPPGYHAFYCHGECPFPLADHLNSTNHAIVQTLVNSVAQAKHKQRKRLKSSCKRHPLYNSKIPKACCVPTELSAISMLYLDENEKVVLKNYQDMVVEGCGCR
modifications: disulfides C23-C27 (intra)
B12: SEQ ID NO: 284, cysteine pairs C59-C59^b, C8-C43^b, C9-C41^b, C88-C92^a (designed binder)
chain: NSKIPKACCVPTELSAISMLYLDENEKVVLKNYQDMVVEGCGCRAQAKHKQRKRLKSSCKRHPLYVDFSDVGWNDWIVAPPGYHAFYCHGECPFPLADHLNSTNHAIVQTLVNSV
modifications: disulfides C59-C59 (inter), C8-C43 (inter), C9-C41 (inter), C88-C92 (intra)
notes: as for B1
B13: SEQ ID NO: 284, cysteine pairs C88-C92^a (designed binder)
chain: B12 chain
modifications: disulfides C88-C92 (intra)
B14: SEQ ID NO: 230, cysteine pairs C27-C65^a (designed binder)
chain: VDFKDVGWNDHAVAPPGYHAFYCHGECPFPLADHLNSDNHAIVQTKVNSVGQAKRKGYKRLKSSCKRHPLY
modifications: disulfides C27-C65 (intra)
B15: SEQ ID NO: 308, cysteine pairs C59-C59^b, C8-C41^b, C9-C43^b, C88-C92^a (designed binder)
chain: NSKDPKACCVPTELSAPSPLYLDENEKPVLKNYQDMVVHGCGCRGQAKRKGYKRLKSSCKRHPLYVDFKDVGWNDHAVAPPGYHAFYCHGECPFPLADHLNSDNHAIVQTKVNSV
modifications: disulfides C59-C59 (inter), C8-C41 (inter), C9-C43 (inter), C88-C92 (intra)
notes: as for B1
B16: SEQ ID NO: 308, cysteine pairs C8-C43^a, C9-C41^a, C88-C92^a (designed binder)
chain: B15 chain
modifications: disulfides C8-C43 (intra), C9-C41 (intra), C88-C92 (intra)
B17: SEQ ID NO: 308, cysteine pairs C88-C92^a (designed binder)
chain: B15 chain
modifications: disulfides C88-C92 (intra)
B18: SEQ ID NO: 276, cysteine pairs C67-C71^a (designed binder)
chain: NSKIPKACCVPTELSAISMLYLDENEKVVLKNYQDMVVEGCGCRVDFSDVGWNDWIVAPPGYHAFYCHGECPFPLADHLNSTNHAIVQTLVNSVAQAKHKQRKRLKSSCKRHPLY
modifications: disulfides C67-C71 (intra)
B19: SEQ ID NO: 316, cysteine pairs C67-C71^a (designed binder)
chain: NSKDPKACCVPTELSAPSPLYLDENEKPVLKNYQDMVVHGCGCRVDFKDVGWNDHAVAPPGYHAFYCHGECPFPLADHLNSDNHAIVQTKVNSVGQAKRKGYKRLKSSCKRHPLY
modifications: disulfides C67-C71 (intra)
B20: SEQ ID NO: 242, cysteine pairs C15-C15^b, C29-C64^a, C30-C62^a (designed binder)
chain: GQAKRKGYKRLKSSCKRHPLYNSKDPKACCVPTELSAPSPLYLDENEKPVLKNYQDMVVHGCGCR
modifications: disulfide 29-64, 30-62; also: homodimer via intermolecular C15-C15 disulfide
notes: as for B1
B21: SEQ ID NO: 292, cysteine pairs C44-C48^a (designed binder)
chain: GQAKRKGYKRLKSSCKRHPLYVDFKDVGWNDHAVAPPGYHAFYCHGECPFPLADHLNSDNHAIVQTKVNSVNSKDPKACCVPTELSAPSPLYLDENEKPVLKNYQDMVVHGCGCR
modifications: disulfides C44-C48 (intra)
B22: SEQ ID NO: 300, cysteine pairs C23-C27^a (designed binder)
chain: VDFKDVGWNDHAVAPPGYHAFYCHGECPFPLADHLNSDNHAIVQTKVNSVGQAKRKGYKRLKSSCKRHPLYNSKDPKACCVPTELSAPSPLYLDENEKPVLKNYQDMVVHGCGCR
modifications: disulfides C23-C27 (intra)
B23: SEQ ID NO: 348, cysteine pairs C88-C92^a (designed binder)
chain: GQAKRKGYKRLKSSCKRHPLYNSKIPKACCVPTELSAISMLYLDENEKVVLKNYQDMVVEGCGCRVDFSDVGWNDWIVAPPGYHAFYCHGECPFPLADHLNSTNHAIVQTLVNSV
modifications: disulfides C88-C92 (intra)
B24: SEQ ID NO: 340, cysteine pairs C15-C15^b, C29-C64^b, C30-C62^b, C88-C92^a (designed binder)
chain: AQAKHKQRKRLKSSCKRHPLYNSKDPKACCVPTELSAPSPLYLDENEKPVLKNYQDMVVHGCGCRVDFKDVGWNDHAVAPPGYHAFYCHGECPFPLADHLNSDNHAIVQTKVNSV
modifications: disulfides C15-C15 (inter), C29-C64 (inter), C30-C62 (inter), C88-C92 (intra)
notes: as for B1
B25: SEQ ID NO: 340, cysteine pairs C88-C92^a (designed binder)
chain: B24 chain
modifications: disulfides C88-C92 (intra)

Columns and labels:
[1] = target: T1, extracellular domain of activin …; test: BIAcore SPR as Example 5 (method not restated); SD ±2.15 nM
Procedure: (§1) Biosensor experiments. In one embodiment, experiments were performed on a BIAcore™ T100/T200 instrument (Pharmacia Biosensor AB) in the multichannel mode (serial flow path involving flow cells 1+2+3+4). Flow rate was 10 μl/min; temperature was 25° C.; and data were recorded at 2.5 points/s. All four segments of a sensor chip CMS were coated with streptavidin (Sigma) to a density of 2000 pg/mm² (2000 resonance units) by the aminocoupling procedure. ActRIIBecd (10 mg) and amine-PEG3-Biotin (10 mg, Pierce, Rockford, Ill.) were dissolved in 200 μl H₂O and 10 mg NaCNBH₃ was added to prepare biotinylated ActRIIBecd. The reaction mixture was heated at 70° C. for 24 h, after that a further 10 mg NaCNBH₃ was added and the reaction was heated at 70° C. for another 24 h. After cooling to room temperature, the mixture was desalted with the spin column (3,000 molecular weight cut off (MWCO)). […] Sensograms were recorded during flow of the analyte (the ActRIIBecd-associated polypeptides (i.e., domains) as previously described) first through flow cell 1 (control) then through flow cell 2 (biotinylated ActRIIBecd). […] The sensograms obtained at 1.11, 3.33, 10, 30, and 90 nM analyte were evaluated for equilibrium binding, association rate, and dissociation rate by using the programs supplied with the instrument (BIA evaluation 2.1; Software Handbook. 1995; Pharmacia Biosensor AB).

[2] = target: T1, extracellular domain of activin …; test: Mean KD column of Table 5; method not restated (BIAcore as Example 5); species also listed in Table 4
Procedure: (§2) Biosensor experiments. In one embodiment, experiments were performed on a BIAcore™ T100/T200 instrument (Pharmacia Biosensor AB) in the multichannel mode (serial flow path involving flow cells 1+2+3+4). Flow rate was 10 μl/min; temperature was 25° C.; and data were recorded at 2.5 points/s. All four segments of a sensor chip CMS were coated with streptavidin (Sigma) to a density of 2000 pg/mm² (2000 resonance units) by the aminocoupling procedure. ActRIIBecd (10 mg) and amine-PEG3-Biotin (10 mg, Pierce, Rockford, Ill.) were dissolved in 200 μl H₂O and 10 mg NaCNBH₃ was added to prepare biotinylated ActRIIBecd. The reaction mixture was heated at 70° C. for 24 h, after that a further 10 mg NaCNBH₃ was added and the reaction was heated at 70° C. for another 24 h. After cooling to room temperature, the mixture was desalted with the spin column (3,000 molecular weight cut off (MWCO)). Biotinylated ActRIIBecd was collected, freeze-dried and used for streptavidin (SA) chip preparation. Amino-biotinylated ActRIIBecd was then immobilized independently on flow cells 2-4 for 10 minutes at a flow rate of 5 μL/min and a concentration of 20 μM in 10 mM sodium acetate, pH 4.0, at a density of 50-250 resonance units (RU). The stored polypeptides were dissolved in glycine buffer (2.5 g of glycine, 0.5 g of sucrose, 370 mg of L-glutamate, 10 mg of sodium chloride, and 10 mg of Tween 80 in 100 mL water, pH 4.5) to prepare 10 mg/mL solution and then diluted with previous glycine buffer to prepare analytes with various concentration. Sensograms were recorded during flow of the analyte (the ActRIIBecd-associated polypeptides (i.e., domains) as previously described) first through flow cell 1 (control) then through flow cell 2 (biotinylated ActRIIBecd). The sensogram obtained for flow cell 1 was subtracted from the sensogram obtained for flow cell 2. The sensograms obtained at 1.11, 3.33, 10, 30, and 90 nM analyte were evaluated for equilibrium binding, association rate, and dissociation rate by using the programs supplied with the instrument (BIA evaluation 2.1; Software Handbook. 1995; Pharmacia Biosensor AB).

[3] = target: T1, extracellular domain of activin …; test: BIAcore SPR as Example 5 (method not restated); SD ±1.67 nM
Procedure: as §1

[4] = target: T1, extracellular domain of activin …; test: Mean KD column of Table 5; method not restated (BIAcore as Example 5)
Procedure: as §2

[5] = target: T1, extracellular domain of activin …; test: BIAcore SPR as Example 5 (method not restated); SD ±1.55 nM
Procedure: as §2, with “The sensogram obtained for flow cell 1 was subtracted from the sensogram obtained for flow cell 2.” left out

[6] = target: T1, extracellular domain of activin …; test: BIAcore SPR as Example 5 (method not restated); SD ±1.63 nM
Procedure: as §1

Row | Binder | Kd [2] | Kd [4] | also measured
1 | B1 | 17 nM | – | Kd [1]: 17 nM
2 | B2 | 7.45 nM | – | Kd [3]: 7.45 nM
3 | B3 | – | 4.04 nM | –
4 | B4 | – | 8.04 nM | –
5 | B5 | – | 4.03 nM | –
6 | B6 | – | 6.05 nM | –
7 | B7 | – | 6.17 nM | –
8 | B8 | – | 8.75 nM | –
9 | B9 | 7.22 nM | – | Kd [1]: 7.22 nM
10 | B10 | 18.1 nM | – | Kd [3]: 18.1 nM
11 | B11 | – | 8.41 nM | –
12 | B12 | 6.91 nM | – | Kd [5]: 6.91 nM
13 | B13 | – | 8.14 nM | –
14 | B14 | 52.2 nM | – | Kd [6]: 52.2 nM
15 | B15 | 6.73 nM | – | Kd [5]: 6.73 nM
16 | B16 | – | 10.9 nM | –
17 | B17 | – | 7.8 nM | –
18 | B18 | – | 7.41 nM | –
19 | B19 | – | 4.67 nM | –
20 | B20 | 18.1 nM | – | Kd [6]: 18.1 nM
21 | B21 | – | 7.81 nM | –
22 | B22 | – | 8.92 nM | –
23 | B23 | – | 4.51 nM | –
24 | B24 | 6.37 nM | – | Kd [5]: 6.37 nM
25 | B25 | – | 5.64 nM | –

From patent publication US20190071480A1 (Biogen, published 2019)
